Assay [1] has as its target fusion protein in which the extracellular domain of Cynomolgus monkey GITR is fused with the domain of mouse IgG1-Fc (Cynomolgus monkey). Description: ELISA, cynoGITR-muFc coated at 5 ug/ml, anti-human IgG-HRP (FIG. 8). For orientation: ELISA stands for enzyme-linked immunosorbent assay.
The target is the same in assay [2]. Briefly: ELISA, cynoGITR-muFc coated at 5 ug/ml, anti-human IgG-HRP (FIG. 7).

Chain of fusion protein in which the extracellular domain of Cynomolgus monkey GITR is fused with the domain of mouse IgG1-Fc (Cynomolgus monkey) (chain, as listed by the source limits assumed, form in doubt): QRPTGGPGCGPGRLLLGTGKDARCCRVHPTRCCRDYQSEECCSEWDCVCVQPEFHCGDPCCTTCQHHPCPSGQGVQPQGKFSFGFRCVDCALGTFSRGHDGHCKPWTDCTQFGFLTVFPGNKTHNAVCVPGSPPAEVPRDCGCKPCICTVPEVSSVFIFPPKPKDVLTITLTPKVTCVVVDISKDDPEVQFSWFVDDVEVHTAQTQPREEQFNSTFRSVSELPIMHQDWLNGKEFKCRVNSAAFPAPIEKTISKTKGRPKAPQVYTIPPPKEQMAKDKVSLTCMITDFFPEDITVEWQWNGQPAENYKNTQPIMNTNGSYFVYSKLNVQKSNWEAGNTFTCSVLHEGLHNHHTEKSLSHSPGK

B1: isolated antigen-binding protein C3E2 (antibody, human IgG1, kappa, V domains shown)
VH: QVQLQESGPGILQPSQTLSLTCSFSGFSLSTFGMGVGWIRQPSGKGLEWLVLILWNDIKYYNPALKSLLTVSKDTSNNQVFLKIASVDTADTATYYCARVDGYYGYFDVWGTGTTVTVSS
VL: DIVMTQSPLSLPVSLGDQASISCRSSQTIVHSNGNTYLEWYLQKPGQSPKLLIYKVSNRFSGVPDRFSGSGSGTDFTLKISRVEAEDLGVYYCFQGSHVPWTFGGGTKLEIKR
Regarding B1, the half-maximal effective concentration (EC50) was 0.0747 µg/mL in assay [1] and 0.0704 µg/mL in assay [2].

B2: isolated antigen-binding protein 3E2 1-2 (antibody, human IgG1, kappa, V domains shown)
VH: QVTLQESGPTLVKPTQTLTLTCTFSGFSLSTFGMGVGWIRQPPGKGLEWLVLILWNDIKYYNPALKSLLTVTKDTSKNQVVLTITNMDPVDTATYYCARVDGYYGYFDVWGQGTMVTVSS
VL: DIVMTQSPLSLPVTLGQPASISCRSSQTIVHSNGNTYLEWYLQRPGQSPKLLIYKVSNRFSGVPDRFSGSGSGTDFTLKISRVEAEDVGVYYCFQGSHVPWTFGGGTKVEIKR
In assay [2], B2 yielded a 50% effective concentration (EC50) of 0.0517 µg/mL.

The term EC50 denotes the concentration giving half of the maximal effect.
